Reference: patent US20210275590A1 (LEGEND BIOTECH IRELAND, published 2021)
Substitutions are numbered along the chain they refer to.

B1: AS67190 sdAb (VHH)
VHH: QVQLVESGGGLVQAGGSLRLSCAASGNVFRFNIMGWYRQAPGNQRELVASIDDGGDRSYADSVEGRFTISRENGKKIMYLQMNSLKPEDTAVYYCAAGLGTYLNGRVSMATNYWGQGTQVTVSS
notes: Camel sdAb
B2: AS49873 sdAb (VHH)
VHH: EVQLVESGGGSVQAGGSLRLSCVASGYTYGINCMGWFRQAPGKEREGIAAISTGGGTTGVADSVKGRFTISQDNAKNTVYLQMNSLKPEDTAMYYCAARSTYSGYACVYSEVNGYNYRGQGTQVTVSS
notes: Camel sdAb
B3: AS49902 sdAb (VHH)
VHH: EVQLVESGGGLVQAGGSLRLSCTASGFTFDDYVMGWFRQAPGKEREGVSCISWSGDTTYYADSVKGRFTVSRDNAKNTLYLQMNSLKPEDTAMYYCAADQSLCSLAPPYNYAYWGQGTQVTVSS
notes: Camel sdAb
B4: AS60399 sdAb (VHH)
VHH: QVKLEESGGGLVQEGGSLRLSCAASGTIYTDSTIYWYRQAPGKQRELVASITRGGDTKYVDSVKGRFAISSDNAKNTVYLQMNSLKPEDTAVYYCNLYYRTGPSSYYRNDWGQGTQVTVSS
notes: Camel sdAb
B5: AS67147 sdAb (VHH)
VHH: EVQLVESGGGLVQAGGSLRLSCAASGDTFSFAAMGWYRQAPGKQRELVASISFSGGESTVYANSVRGRFTISGDNAKNRVSLEMNNLKPEDTAVYYCTAKRGPYLPGPEYWGQGTQVTVSS
notes: Camel sdAb
B6: AS49226 sdAb (VHH)
VHH: EVQLAESGGGSVQAGGSLRLSCAASGVTFSSTSVAWFRQAPGKEREGVAYIYTGDSSTYYADSVKGRFTIAQDNAKNAVYLQMNSLKPEDTAMYYCAADGFLLNHRSYQYWGQGTQVTVSS
notes: Camel sdAb
B7: AS49889 sdAb (VHH)
VHH: EVQLVESGGGSVQAGGSLRLSCVASGYTWCRYDMSWYRQAPGKEREFVSGFDNDGTTSYADSVKGRFTISQDNDKNTVYLQMNSLKPEDTAMYYCKEDRSRGSLDGRVCPLSYDNWGQGTQVTVSS
notes: Camel sdAb
B8: AS49814 sdAb (VHH)
VHH: QIQLVESGGGSVQAGGSLRLSCVASGYIGGHYYMGWFRQAPGKEREGVAAIDIDSDGRTRYAGSVQGRFTISQDNAKNTLHLQMSSLKPEDTGMYYCAVGVGWVPARLTPQAVSYWGKGTLVTVSS
notes: Camel sdAb
B9: AS49175 sdAb (VHH)
VHH: EVQLAESGGGLVQAGGSLRLSCTASGFTFDDYVMGWFRQAPGKEREGVSCISWSGDTTYYADSVKGRFTASRDNAKNTLYLQMNSLKPEDTAMYYCAADQGKCSLASAEPDDMDYWGRGTLVTVSS
notes: Camel sdAb
B10: AS50073 sdAb (VHH)
VHH: B9 VHH with E1Q, A5V, D31N, S52G, D56G, T57S, A70I, A106G, E109G, P110A
notes: Camel sdAb
B11: AS50502 sdAb (VHH)
VHH: EVQLVESGGGSVQAGGSLRLSCAAPGYTYCTYDMMWYRQALGKEREFVSAVYTDGSTLYADSVKGRFTISQDNAKNTLYLQMNSLKPEDTAMYYCKTETAVTYDKPCDFWGQGTQVTVSS
notes: Camel sdAb
B12: AS59101 sdAb (VHH)
VHH: AVQLVESGGGLVQPGGSLRLSCAVSGIYYSINLMGWYRQAPGKPRELAASITDSGITNYADSVKGRFTISRDNAKNTVHLQMNNLKPEDTAVYYCKPMGVNWGQGIQVTVSS
notes: Camel sdAb
B13: AS58930 sdAb (VHH)
VHH: AVQLVESGGGLVQAGGSLRLSCTASGSILRTYEMGWYRQAPGSQRELVASITSDGDTNYVDSVKGRFTISRDNGKNMVYLQMNSLKPDDTAVYYCNAVILSPSYSMRTSHWGQGTQVTVSS
notes: Camel sdAb; also called AS58930C
B14: AS66873 sdAb (VHH)
VHH: QVQLVESGGGLVQPGGSLRLSCAASGSIFSITAMGWYRQAPGKQRELVATVTSGGSTKYVESVKGRFTISNDNAKNTVYLQMNSLKPEDTAVYYCWADIVARWNSDYNVYDDYWGQGTQVTVSS
notes: Camel sdAb
B15: AS49264 sdAb (VHH)
VHH: EVQLVESGGGSVQAGGSLRLSCAASGYTYSINCMGWFRQAPGKEREGVAVISTGGGRTDYRDSVKGRFTISQDNAKNTVYLQMNSLKPEDTAMYYCAGKTTYPGYGCGLGRSAYNYWGQGTQVTVSS
notes: Camel sdAb

target: T1, Recombinant human CD33 protein (human, UniProt P20138 18-259); assay: SPR (BIACORE T200), crude sdAb captured via affinity tag, 100 nM human CD33 as analyte
T1 construct: Obtained commercially; also called huCD33
Method: The sdAb proteins in the supernatant were analyzed for their ability to bind to CD33 ECD proteins by ELISA and CD33-overexpressing MV4-11 cell lines by FACS. All binders were sequenced and some were subjected to for further characterization including affinity ranking by surface plasmon resonance (SPR) on a BIACORE® T200 instrument. The experiments were carried out as follows: the crude sdAb proteins were captured through an affinity tag onto the sensorchip. High-concentration (100 nM) of human CD33 flowed over the sensorchip surface, and was allowed to bind the antibody fragments. On-rate (kₒₙ) and off-rate (koff) were roughly calculated based on the association and dissociation of one antigen concentration, and were used to estimate the equilibrium dissociation constant (KD).

T1 sequence (P20138 18-259 limits assumed): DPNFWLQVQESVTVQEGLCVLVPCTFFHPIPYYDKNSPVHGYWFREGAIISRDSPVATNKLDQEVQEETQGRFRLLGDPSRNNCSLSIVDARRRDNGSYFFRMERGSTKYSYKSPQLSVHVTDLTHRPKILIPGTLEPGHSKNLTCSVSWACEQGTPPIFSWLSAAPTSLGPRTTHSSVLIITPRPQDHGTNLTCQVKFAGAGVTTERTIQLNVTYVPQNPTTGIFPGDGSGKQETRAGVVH

| binding result | Binder |
| --- | --- |
| binds | B1 |
| binds | B2 |
| binds | B3 |
| binds | B4 |
| binds | B5 |
| binds | B6 |
| binds | B7 |
| binds | B8 |
| binds | B9 |
| binds | B10 |
| binds | B11 |
| binds | B12 |
| binds | B13 |
| binds | B14 |
| binds | B15 |
